The record followed here is PMC4947174 (Nature Communications, 2016).

First the molecules themselves.
B4: Rrn3 (Pol I-specific initiation factor), overexpressed in yeast as Rrn3-TEV-ProtA-His7 (natural protein, S. cerevisiae)
chain: MMAFENTSKRPPQDFVAPIDQKKRKVQFSDSTGLVTLQPEEIKDEVFSAAMYSRFVKSALDDLDKNDSTQIGIIANQVALPSKNPERINDKNLNILLDILSSNINRIESSRGTFLIQSIINFEKWWELPPHTLSKYIYFIKILCSSIPKWWQDVSMILVSCFILPIKQTVCHHDMLKYFLRMIPSSMGFIDTYLAKFFPNKNDTRRKLVNYTSNLLKLRGYCSELGFQIWSLLIEKIISIDVELQNELDELDDDVDDDDLEEVDLEDDDDLDDDSGDDDDENCGNSNEELRSGAADGSQSDSEDMDIIEGMDGTEEYNVELTQGIKELSTKLDSILTLVSTHVEEQVTPESLESGEGVGVFNTLTTLFKTHVLPTYYTRSIQYIMFHVSQQQLELMDSFLVTLIDISFAVNEAAEKKIKSLQYLGSYIARAKKLSRTQIIFVASYLTSWLNRYVIEREEEVDQRGGMERFKHFYAAFQALCYIFCFRHNIFRDTDGNWECELDKFFQRMVISKFNPLKFCNENVMLMFARIAQQESVAYCFSIIENNNNERLRGIIGKADSDKKENSAQANTTSSSWSLATRQQFIDLQSYFPYDPLFLKNYKILMKEYYIEWSEASGEYESDGSDD
notes: Rrn3, RNA polymerase I-specific transcription initiation factor, S. cerevisiae; Released from the beads by TEV protease; source: S. cerevisiae strain y2183 with plasmid 729 (Ycplac111-GAL-Rrn3-TEV-ProtA-HIS), galactose-induced; purified in complex with Pol I (IgG beads, TEV elution)

The target of assay [1] is Rrn3-free RNA polymerase I (WT Pol I) purified through A135-TEV-ProtA (S. cerevisiae (endogenous in yeast) | S. cerevisiae) (UniProt P10964).
Assay [2] has as its target B4. The assay can be described thus: cryo-EM structure; Pol I-Rrn3 complex purified from yeast, cross-linked with 0.5% glutaraldehyde for 2 min; 20 mM Hepes pH 7.8, 100 mM ammonium acetate, 2 mM MgCl2; 32,438 particles of intact complex; 7.5 Å; crystal structures of Pol I and Rrn3 docked into the map. Conditions: both partners purified.
Assay [3] deals with T1, Pol I subunit A190 (largest subunit) (S. cerevisiae (endogenous in yeast), UniProt P10964 1-1664).
T1 construct: A190, largest subunit of RNA polymerase I, S. cerevisiae; source: endogenous, S. cerevisiae; part of Pol I purified with Rrn3-ProtA (y2183) or through A135-ProtA (y2423)
The description is as above. Conditions: both partners purified.

Where only a bound is given, the exact number is not on record here.

T1 sequence (P10964 whole entry): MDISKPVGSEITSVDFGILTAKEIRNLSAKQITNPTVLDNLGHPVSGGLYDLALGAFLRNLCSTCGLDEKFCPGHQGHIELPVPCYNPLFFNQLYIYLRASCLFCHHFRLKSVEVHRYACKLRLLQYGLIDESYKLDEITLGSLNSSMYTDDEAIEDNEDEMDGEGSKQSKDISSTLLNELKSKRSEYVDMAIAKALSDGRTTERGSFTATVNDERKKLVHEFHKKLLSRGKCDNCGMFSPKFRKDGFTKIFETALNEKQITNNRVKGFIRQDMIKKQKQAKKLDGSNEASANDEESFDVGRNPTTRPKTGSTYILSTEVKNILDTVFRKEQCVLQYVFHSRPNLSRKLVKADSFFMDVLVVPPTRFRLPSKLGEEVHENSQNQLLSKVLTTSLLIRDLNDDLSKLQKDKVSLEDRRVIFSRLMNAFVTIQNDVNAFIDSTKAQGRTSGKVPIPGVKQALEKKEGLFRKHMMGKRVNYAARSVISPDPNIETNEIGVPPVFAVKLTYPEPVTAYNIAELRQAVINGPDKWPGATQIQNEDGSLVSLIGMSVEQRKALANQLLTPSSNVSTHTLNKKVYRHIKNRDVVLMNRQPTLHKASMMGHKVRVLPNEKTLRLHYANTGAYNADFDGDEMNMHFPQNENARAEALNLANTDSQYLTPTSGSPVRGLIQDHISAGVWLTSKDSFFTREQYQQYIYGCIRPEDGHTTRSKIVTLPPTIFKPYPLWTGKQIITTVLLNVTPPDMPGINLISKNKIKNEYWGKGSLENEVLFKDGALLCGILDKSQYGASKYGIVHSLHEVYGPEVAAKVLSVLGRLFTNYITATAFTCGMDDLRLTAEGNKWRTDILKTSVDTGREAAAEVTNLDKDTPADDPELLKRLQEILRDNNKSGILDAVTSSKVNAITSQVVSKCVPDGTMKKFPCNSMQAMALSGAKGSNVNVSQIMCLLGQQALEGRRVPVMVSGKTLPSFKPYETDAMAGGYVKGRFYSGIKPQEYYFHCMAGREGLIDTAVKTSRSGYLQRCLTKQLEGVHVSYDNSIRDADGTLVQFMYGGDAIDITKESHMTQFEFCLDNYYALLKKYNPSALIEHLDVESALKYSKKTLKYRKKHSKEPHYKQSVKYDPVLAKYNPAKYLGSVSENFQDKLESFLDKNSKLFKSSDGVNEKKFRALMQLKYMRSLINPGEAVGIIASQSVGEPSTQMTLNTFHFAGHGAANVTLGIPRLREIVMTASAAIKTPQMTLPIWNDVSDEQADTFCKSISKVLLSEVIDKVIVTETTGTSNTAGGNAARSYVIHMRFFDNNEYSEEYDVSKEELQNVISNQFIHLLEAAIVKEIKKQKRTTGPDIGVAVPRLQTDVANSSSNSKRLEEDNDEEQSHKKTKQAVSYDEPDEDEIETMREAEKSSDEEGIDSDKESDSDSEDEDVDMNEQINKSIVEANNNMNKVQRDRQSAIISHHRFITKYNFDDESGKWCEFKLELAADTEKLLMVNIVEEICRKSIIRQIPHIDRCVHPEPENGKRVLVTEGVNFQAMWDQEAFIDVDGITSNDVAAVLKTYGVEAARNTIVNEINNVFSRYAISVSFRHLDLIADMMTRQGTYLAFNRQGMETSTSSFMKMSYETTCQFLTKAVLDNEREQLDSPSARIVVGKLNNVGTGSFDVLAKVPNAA
Sequence of Rrn3-free RNA polymerase I (WT Pol I) purified through A135-TEV-ProtA (S. cerevisiae (endogenous in yeast) | S. cerevisiae) (P10964 whole entry, looked up): as the sequence (P10964 whole entry) above

For “Recombinant His6-Rrn3 (from UniProt P36070 1-627) (natural protein)”, the promoter-dependent in vitro transcription: purified Pol I-Rrn3 complex against the same concentration of Rrn3-free Pol I with recombinant His6-Rrn3 (70 nM) and CF (20 nM) in assay [1] is less than 10 fold.

B1: Pol I subunit A14 (natural protein, S. cerevisiae (endogenous in yeast), UniProt P50106 1-137, looked up)
chain: MMKGSRRTGNNTATTLNTPVVIHATQLPQHVSTDEVLQFLESFIDEKENIIDSTTMNTISGNAADADAAAVANTSLNIDTNLSSSISQLKRIQRDFKGLPPAQDFSAAPIQVSTTEKKETSIGVSATGGKKTTFADE
notes: A14, subunit of RNA polymerase I, S. cerevisiae; source: endogenous, S. cerevisiae; part of Pol I purified with Rrn3-ProtA (y2183)
For B1, in assay [2], the binding result was “binds”.

B2: Pol I subunit AC40 (natural protein, S. cerevisiae (endogenous in yeast), UniProt P07703 1-335, looked up)
chain: MSNIVGIEYNRVTNTTSTDFPGFSKDAENEWNVEKFKKDFEVNISSLDAREANFDLINIDTSIANAFRRIMISEVPSVAAEYVYFFNNTSVIQDEVLAHRIGLVPLKVDPDMLTWVDSNLPDDEKFTDENTIVLSLNVKCTRNPDAPKGSTDPKELYNNAHVYARDLKFEPQGRQSTTFADCPVVPADPDILLAKLRPGQEISLKAHCILGIGGDHAKFSPVSTASYRLLPQINILQPIKGESARRFQKCFPPGVIGIDEGSDEAYVKDARKDTVSREVLRYEEFADKVKLGRVRNHFIFNVESAGAMTPEEIFFKSVRILKNKAEYLKNCPITQ
notes: AC40, subunit shared by RNA polymerases I and III, S. cerevisiae; source: endogenous, S. cerevisiae; part of Pol I purified with Rrn3-ProtA (y2183)
Consider B2, for which the binding result in assay [2] was “binds”.

B3: Pol I subunit AC19 (natural protein, S. cerevisiae (endogenous in yeast), UniProt P28000 1-142, looked up)
chain: MTEDIEQKKTATEVTPQEPKHIQEEEEQDVDMTGDEEQEEEPDREKIKLLTQATSEDGTSASFQIVEEDHTLGNALRYVIMKNPDVEFCGYSIPHPSENLLNIRIQTYGETTAVDALQKGLKDLMDLCDVVESKFTEKIKSM
notes: AC19, subunit shared by RNA polymerases I and III, S. cerevisiae; source: endogenous, S. cerevisiae; part of Pol I purified with Rrn3-ProtA (y2183)
For the molecule B3, the binding result in assay [2] was “binds”.

As to B4, the binding result in assay [3] is given as “binds”.
